Data taken from article PMC8080530, “Glucocorticoid receptor Thr524 phosphorylation by MINK1 induces interactions with 14-3-3 protein regulators” (The Journal of Biological Chemistry, 2021).
No end group written: not given here. *: point of attachment. FITC = O=C1OC2(c3ccc(O)cc3Oc3cc(O)ccc32)c2ccc(NC(=S)*)cc21

Experiments:
[1] = biological target: GFP-GR T524A S617A, full-length GR double mutant (human) (UniProt P04150); assay: co-IP; GFP-Trap agarose beads on RIPA lysates of transfected U2OS or HEK293 cells stimulated with forskolin or calyculin A; blot with anti-pan 14-3-3 antibody
GFP-GR T524A S617A, full-length GR double mutant (human), sequence (P04150 whole entry T524A/S617A): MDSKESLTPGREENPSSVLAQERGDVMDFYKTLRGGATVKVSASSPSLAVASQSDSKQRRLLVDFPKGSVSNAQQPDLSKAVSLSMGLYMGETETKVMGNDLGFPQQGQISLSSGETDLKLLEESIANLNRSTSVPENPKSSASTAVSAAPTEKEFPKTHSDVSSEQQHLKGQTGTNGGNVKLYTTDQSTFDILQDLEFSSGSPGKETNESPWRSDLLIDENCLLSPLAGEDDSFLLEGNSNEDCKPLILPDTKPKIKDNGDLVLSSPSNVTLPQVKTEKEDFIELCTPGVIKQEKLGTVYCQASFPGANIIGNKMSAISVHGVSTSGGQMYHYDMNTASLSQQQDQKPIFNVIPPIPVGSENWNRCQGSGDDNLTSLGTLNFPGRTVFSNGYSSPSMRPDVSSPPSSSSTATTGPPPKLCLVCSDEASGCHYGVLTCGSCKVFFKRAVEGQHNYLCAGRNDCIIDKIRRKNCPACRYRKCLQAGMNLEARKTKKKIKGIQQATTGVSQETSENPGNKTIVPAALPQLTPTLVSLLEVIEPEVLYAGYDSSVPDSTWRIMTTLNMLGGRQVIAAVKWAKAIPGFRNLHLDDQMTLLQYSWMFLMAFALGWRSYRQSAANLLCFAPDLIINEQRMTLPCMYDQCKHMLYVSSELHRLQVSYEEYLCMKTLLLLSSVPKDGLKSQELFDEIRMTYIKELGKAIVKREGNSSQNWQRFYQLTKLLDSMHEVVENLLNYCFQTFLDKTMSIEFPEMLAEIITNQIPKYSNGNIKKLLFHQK

[2] = biological target: T1, human 14-3-3ζ, full length, 6His-Linker-h14-3-3 (human, UniProt P63104 1-245); assay: FP
T1 chain: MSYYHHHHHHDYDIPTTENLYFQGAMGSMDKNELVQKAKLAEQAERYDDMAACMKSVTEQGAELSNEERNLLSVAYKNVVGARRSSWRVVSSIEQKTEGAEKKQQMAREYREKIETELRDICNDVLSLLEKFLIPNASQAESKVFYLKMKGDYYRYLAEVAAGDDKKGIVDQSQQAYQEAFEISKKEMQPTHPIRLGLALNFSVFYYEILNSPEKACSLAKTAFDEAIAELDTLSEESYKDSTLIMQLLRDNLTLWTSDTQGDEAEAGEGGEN

[3] = biological target: T1, human 14-3-3ζ, full length, …; assay: SPR

## 14-3-3 proteins, endogenous (detected with anti-pan 14-3-3 antibody) (from UniProt P63104 1-245) (natural protein)
[1]
  decrease of the interaction against the WT GR: 35%

B1: GR_pS83-pT524, FITC-labelled 31-mer doubly phosphorylated peptide (peptide)
peptide: {FITC}-DLSKAVSLSMGLYGGGGGKTIVPATLPQLTP
modifications: also: phosphoserine at S83 and phosphothreonine at T524, places in chain not given here
[2]
  Kd: 900 nM

B2: GR_pT524-pS617, 31-mer doubly phosphorylated peptide used for SPR and crystallography (peptide)
peptide: KTIVPATLPQLTPGGGGGRSYRQSSANLLCF
modifications: also: phosphothreonine at T524 and phosphoserine at S617, places in chain not given here
[3]
  Kd: 30 nM
